± gives the uncertainty stated by the source.
Assay: self-splicing fitness, log relative to wild type (ln ratio); higher = more splicing; Tetrahymena group I intron in knt gene, E. coli kanamycin selection, DiMSum; sequences stand for … in CUCUCU…GGAGGGAAAAGUUAUCAGGCAUGCACCUGGUAGCUAGUCUUUAAACCAAUAGAUUGCAUCGGUUUAAAAGGCAAGACCGUCAAAUUGCGGGAAAGGGGUCAACAGCCGUUCAGUACCAAGUCUCAGGGGAAACUUUGAGAUGGCCUUGCAAAGGGUAUGGUAAUAAGCUGACGGACAUGGUCCUAACCACGCAGCCAAGUCCUAAGUCAACAGAUCUUCUGUUGAUAUGGAUGCAGUUCACAGACUAAAUGUCGGUCGGGGAAGAUGUAUUCUUCUCAUAAGAUAUAGUCGGACCUCUCCUUAAUGGGAGCUAGCGGAUGAAGUGAUGCAACACUGGAGCCGCUGGGAACUAAUUUGUAUGCGAAAGUAUAUUGAUUAGUUUUGGAGUACUCGUGGUCG
Outline: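 Colonies from six replicate transformations of E. coli BL21(DE3) were pooled and amplicon-sequenced on an Illumina HiSeq 2500. The library placed an intron with all eight P1ex-region nucleotides randomised inside the knt kanamycin-resistance gene on pET-22b(+), and cells grew overnight at 37°C or 30°C on LB agar with or without 25 μg/mL kanamycin (plus 100 μg/mL carbenicillin, 50 μM IPTG, 0.2% rhamnose). Fitness is the DiMSum error-weighted combination of wild-type-normalised replicate fold changes, kanamycin versus none.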

Sequence | self-splicing fitness (ln) (30 °C) | self-splicing fitness (ln) (37 °C)
CAUUAGCAAUAUUACGGGCU | -1.68 ± 0.2 | -2.7 ± 0.3
GUUCAGCAAUAUUACGAGCC | -3.38 ± 0.18 | -2.48 ± 0.24
ACGCAGCAAUAUUACGCCAC |  | -3.22 ± 0.37
UCCAAGCAAUAUUACGUGCG | -3.59 ± 0.15 | -1.68 ± 0.13
CGCCAGCAAUAUUACGGUUC | -2.29 ± 0.11 | -1.54 ± 0.11
UGGCAGCAAUAUUACGUCCU | -0.363 ± 0.11 | 0.0307 ± 0.15
CUGCAGCAAUAUUACGAAUG | -0.593 ± 0.066 | -0.0469 ± 0.081
CAAGAGCAAUAUUACGUUGA | -3.98 ± 0.36 | -2.94 ± 0.21
UGCGAGCAAUAUUACGUUCU | -1.68 ± 0.12 | -2.05 ± 0.14
CCGUAGCAAUAUUACGAUUG | -0.486 ± 0.064 | -0.0224 ± 0.082
CAUAAGCAAUAUUACGCUCU | -2.58 ± 0.19 | -1.3 ± 0.12
AUUAAGCAAUAUUACGAGGA | -3.01 ± 0.28 | -0.871 ± 0.19
GGCCAGCAAUAUUACGUGGC | -0.533 ± 0.25 | -1.69 ± 0.35
GACAAGCAAUAUUACGCAGC |  | -1.7 ± 0.22
AUGAAGCAAUAUUACGCUCA | 0.436 ± 0.068 | 0.555 ± 0.082
GAUGAGCAAUAUUACGAAUC | -3.19 ± 0.41 | -1.89 ± 0.29
AGAUAGCAAUAUUACGGAAG | -3.57 ± 0.22 | -2.02 ± 0.19

Sequence | self-splicing fitness (ln) (30 °C) | self-splicing fitness (ln) (37 °C)
AGCUAGCAAUAUUACGAAAU | -2.4 ± 0.15 | -1.83 ± 0.2
CAUGAGCAAUAUUACGCCGA | -2.14 ± 0.47 | -2.48 ± 0.31
AUUGAGCAAUAUUACGCCUA | -1.99 ± 0.2 | -1.52 ± 0.2
CCUUAGCAAUAUUACGACCU | -2.79 ± 0.2 | -1.77 ± 0.29
CGAUAGCAAUAUUACGGUAU | -2.78 ± 0.14 | -1.79 ± 0.17
AUGGAGCAAUAUUACGCUCU | -3.56 ± 0.49 | -1.45 ± 0.41
UAUGAGCAAUAUUACGGCAU | -2.94 ± 0.27 | -2.05 ± 0.41
GAGCAGCAAUAUUACGUUCC | -3.51 ± 0.17 | -3.28 ± 0.21
GAUCAGCAAUAUUACGCCGG | -1.75 ± 0.18 | -1.41 ± 0.21
ACCCAGCAAUAUUACGGAGC | -1.06 ± 0.083 | -0.369 ± 0.1
CGUAAGCAAUAUUACGGGCU |  | -1.92 ± 0.21
AACGAGCAAUAUUACGUCUA | -2.06 ± 0.17 | -0.756 ± 0.12
CAUUAGCAAUAUUACGUCUC | -3.28 ± 0.27 | -1.76 ± 0.23
GCGAAGCAAUAUUACGCGAU | -2.49 ± 0.44 | -1.74 ± 0.47
GAGGAGCAAUAUUACGUAGU | -2.29 ± 0.19 | -2.19 ± 0.3
AAAGAGCAAUAUUACGCGGA | -3.29 ± 0.33 | -2.33 ± 0.22
UAUCAGCAAUAUUACGAACA | -0.0668 ± 0.089 | -0.206 ± 0.096
